A short description of the data set: protease stability score; higher = more stable; yeast display proteolysis, trypsin and chymotrypsin.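 Also: relative to predicted unfolded state with 0 unfolded-like and 1 meaning tenfold more protease.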
Consider “SHEDELSRHILETWKEILDTGDEHTEHELADPNTRIEVDGRDIMGWHAWNHFLRKMGIKHIHFERVSIQGNKIHIDGIMEFDGRRRKTDIDLHVVNGRIESIRYEVK”, for which the protease stability score is 1.63.
With “SHEDHLVDLAFEVWRRDLETGDEDLLKKLVDPNVRIIQGDKMYHGMDDYVERLRRIWEELGVDYIQVHLEHSRQVNGVAELDVRLKLRIGDKRREYRLHLHIEKVNGKWQIKQINIQ” the figure was 0.277; with “SHEDKLNEEVARLIIHAWKTGNERLMLKLLDPHTRFEQGDKEMVGREHLLEMLRHRLEELGVDHIDFKDYKIDVVDGVLNIYLRIEIEVGDKHIDMIIKVIVLKFDGRWHVHEVRVEER”, 1.5.
On to “SHEDRWIEHMVDLLEELFHTGDWEHLRHLFDPNTRSNINGKEFHGRDLAIKLVVEKMEFFKGARTDVEHRHVQGEKVELIFRLEYNGRRFHLSIRLQVVNGRVKEVNVKIDTE”, for which the protease stability score amounted to 1.67.
“SHEEEDEHRLVIEWLEAVLTGDEDRLTELFDPNMRFVFENHQVHGRERVSKLLVRHMLEWRTRVKIEDMEYFNGRLHIDMELHVDVNGRHVNIKSLLIVEKINGKWFVRSVRVR” registered a protease stability score of 0.534.
On to “SHEEEESTKVAEDWLRHVLTGDEEDMTKLADPNTKVDVGDKHMHGMRSYWEFLHEIRIKHVHVHRIHIELVNGRAFIIIDGEIHEEVGDKEVEIKSRFILIVEKVNGRWIIREVRYQRI”, for which the protease stability score is 1.54.
With “SHEEEIAREISRDLFRAFLTGDEDWLLKNLDPDARLHVSVGDKSEHFHGREEVMKFVREWRVHRIEIKELRVFNGRIHSRVHVYGEFNGQRFRTDIHENYNIVDGRIKEIHVEIR” the figure was 1.66; with “SHEEELEEKIARILLEAWITGDEEFLFRLADPNVKLDIKYGDKRHIHIGREELLKWYRHELERFKNMKIVLHDRHIQGEKVHLHLVMHFNGQRIDVRIEVIIINGRIKHIHIEVDEK”, 2.6.
For “SHEEEMAERALRKFIHSVQTGDEDSWEELLDPNVRINIGDKRHVGRHEAVKLFRQRIRHLRIDHIELRERDYYGDKLILRIIVEGRFNGQETTLELHIVFWKFDGRWIIESMEHK”, the protease stability score is 2.77.
“SHEEEMHLHVAELMLKLLLTGNEEELAKLMDPNVQTEIDGRSYHGRELIIDLIRHSREKLGVNHSELKRSHVRLVDGRLHVHLDSRFLVNGVWLDVEIEMFVLKINGKWVIESVHVRVR”: the protease stability score is 0.718.
In turn, “SHEEHEMHNALKLLLDAWRTGDEDSLNNNADPRMKIKVNGKEFVGMEHMTHFLRELLEELRFTDSTVTELDIVNGVLISVTRLHIEVGDKRMDFHTRLVFTKVNGRWRLHSLVLI” registered a protease stability score of 1.99.
With “SHEEHHLYEVAEMLLRWWRTGDEDSLYKFIDPHARVEIGEYSVHGREHIVRLMSRHLREIRLKDTDVHRIDVINGQTVLNVRLRGEINGVDTNVDARLHVVVVDGVVHSIHIEHI” the figure was 1.24; with “SHEEHLKRDMLERSFKAWLTGDEESLHELLDPHVRVHFNGRDFHGRELVSTLIREMLRWLGIKHSRFHHIQVFDGKARLELRLEQGEFEVEIEVISLKVDGRWFQHELRFH”, 1.02; with “SHEKELNERAFRILIEELMTGDEDSWRKLADPNTRHIIDGQTYHGMDFFHEHVRKMGMTIHHVELEDYRFQGEKAVLILHIDGRQGEKHDKIRITIFIEKVDGRWILREVRIG”, 1.17.
With “SHEQEEARFFLDVLIEWFLTGDEEHMMKNADPNVRIEVGDKHLHGRELTYEWLKELRFKHHHVHRVTSQGDKVYYDVKVDGHINGVDRHSLEIIITLKFDGRWILKSIHVR” the figure was 1.95; with “SHHEDDSEISIELTHNLIETGDFELLTELFDPNARMDYNGVTVHGRERVSEFLSRFAHHIRIKRRILRHMDLFDGQIHLHEEYHYDWDGQDIHTEVRFRSEKVNGRWVPKLLHRI”, 0.969; with “SHHEEHLHEMLRLILEAWETGDEDFLEELADPRVQLIVNGKDIHGRHVFRTMLRTHIEQMRIKRVTPRRVRNYDGRVESDIEVDGIIDGQRRKYRTTWVVEIIDGRVESLSLHFI”, 0.723.
For the sequence “SHHEEHLKRLESFLLEATDTGDEDFLTKLIDPHVKLDIDGVELHGREDWLKYFLDLGVDHVRITSSRDINGRLHLTTRMHIGDKITETRVHSEKFDGQWVIKEIIIH”, the protease stability score is 0.823.
For “SHKEEEFRRLFELTIRMFLTGDEDVMSKLMDPNVRLQVHVNGKNIEIHGWENLIKTFIDLGIDHWEFKRSDIIGDFVMLDGRIEFNGRRSNTELRFLIIDGRVKSIIIKIE”, the protease stability score is 2.05.
In turn, “SHLEEDAEKALRHLIHLFYTGDEKTLHNLADPNTRFRIGDKEYHGMEYILEFWLHIRLEDFDVERMSVQGDKIHIDSRMTLHFNGRSREIEVHILLLKYNGVWRIEEVRIH” came in with a protease stability score of 1.24.
Regarding “SHLEEEAKEAHDVWLHELLTGDEHQINRLLDPHTRVHIGDKDLHGRHELVRKMVETVRRVDHYHLKIKHLRVQGDKIVSTGNYTLHINGKDIHIDTRLILTKIDGVWILEEIRVE”, the protease stability score is 1.16.
In the case of “SHLEEETMHIAEIFIKNELTGDERKLVELLDPNTRLHIDIGDKHIDVHGMENITKLLREIWKRLGADHVHIKDVRVQGDKADIITRIDVNGREIHSRIHILVINGKIESLKLHVE”, the protease stability score came to 1.33.
With “SHLEEHLKENLKREEEARRTGDFRFFSRLADPHVKIIINGVELHGMETYNEHWRQIWHDSHHMEITSIDVQGDKIEADIRIIEHGRINGVRESIVLTVRLRFEKINGRWVLTMIIIE” the figure was 0.077; with “SHLKEDLRRALEKELQDLRTGDEEKIVRMMDPNVRLHIDGVELHGRDWLSRYAKEMRTEHIELRRFETQGNKIHIDTEVDLRYGDFRRDVHVEIIAIKVDGRWVKHETEVR”, -0.081; with “SHLSEIAEEIMRELAHAQITGDEHTISRLLDPDTRVEFNGQELHGRDSWVKFLRELGVDHIEIRLEIKRMRIFENRVEIDGVDHIIIRYNGREERREIPSHWDLMKIDGRWSIHSVRAE”, 1.4.
The value for “SHNDKLWHEDIELFIEAWETGDWKLLVEMLDPHTRIEIRQGDKTIVLHGREDASRDIIEYTEFFKNVTITKDDRHIQGDKTEMHITIIIGEFVLRTIIEFDMFNGQLKTYRRKVL” was 1.18; that for “SHNEEQSEREAKLEIEAYLTGDFDTLHRLADPNVRNNIEYGDKEIRLHGREEWVHQFYKLVEEYKGVKIHLQHLEYQGDKVILRIEIRVNGRERVLEIQIHVINGRSKEVNVETHVH” was 1.18.
In turn, “SHVEEEAEHFWEELVRAYKTGDENLLKRLADPNVKVDINGRELIGREEFARVVSEERRQMRSHVELHDIRKDGDKMHINTILRIHIGDKEVSRTTHLHSIKVDGRWRLETWHIV” displayed a protease stability score of 1.06.
For the sequence “SHVEEESREAIERFEHLLRTGNEEELENLADPNVLLRVNGKEIWGRERAIKHIIHEMTRVKNMKLTSESFEISENHIHFKFTLTINGKIIHLEIVTKKVDGRWVIKHVEFH”, the protease stability score worked out at 1.32.
In turn, “SHVEELSHEVTRWVDIALQTGDERVIDEYLDPNARIDVGDKHFIGREEMSEFYSEFSRRVKNLKLSRYHKKDERIIGNKVILHGKLNVNINGRSHEIDTEIVSMKVNGRWLVEKEIVN” yielded a protease stability score of 0.302.
For “SHVEQESREIFEQIVRNLKTGDEDLLTELLDPNTLHIVNGVEIHGMEIVAKFLLDWRRKVKNIRIHDEEERHIEIYGDKVISHVDMDGIVNGRRVRRENIWIAEKVDGRWVIREVEVR”, the protease stability score is 1.94.
“SHVKEIIRHFFDELVRRRETGDEEVLKELADPHTRLRVGEKEIHGWDEILTRFITWLEIHGAEYTDHRIHDIRVVGEKVHVESEIDIDYNGKHVEHHFEIVVEKINGRWRMKSIFVS” registered a protease stability score of 1.27.
In turn, “SHWDQRLEELSKLVVDHLNTGDFEEIKRLVDPHMRLEIGDKTRIGREQIHEWLEEFLRRYKNARVEIRIEHHELYGEKFFADTRLNLHVGDKHHHFDTRLEIHVIDGKIHSMSMRIH” had a protease stability score of 1.1.
As to “SHWEEDARRFNEIFITHFMTGDWHHLERMLDPHTRAHINGVNTVGREEVSRLVTELFEELGAKHHRIHDFRIQGDKVDTHHHLDVNGRNNHFIIHVKKINGKWRVESIEMTVI”, the protease stability score was 1.22.
Turning to “SKDDEIIHTLIRFIVHILQTGNEEESHRMADPNAKSNINGVEVHGREEFVDLWVEWMERLGHDRVHSRLRHVNIQGDKAIMHIELDVNGKEFNLIVFIRKVNGRWYLEEMTID”, the protease stability score worked out at 2.11.
“SKDEDDMRRWAEILIQDFITGDEDRMNHLLDPNTRVQVNGVQDHGMEALEKLFEILGFKHIDIKDLHIKLIGDKVEQDVVLRLNVNGKERKVKVHNFAEKVDGRWFVESITVHVR” returned a protease stability score of 1.02.
The sequence “SKDEEDAEEFFEKWLRYSRTGDEKSMEELMDPNTKIDFNGKEIHGREEVLRFLIELRVHHIEIKRISSINGKLHIDGRFDIIYGDKRIDTRTVLEIDKINGRWHLHTVRFV” registered a protease stability score of 2.12.
In turn, “SKDEKTLSHFIKFLEDVEKTGNFEDFYELMDPDAKLVVNGVEHHGRDEFTRFIKEFMDRVDHIHYTDVHHIILQGDKVIIDAKVRGVWDGVERELRVKIIIVKINGRWYLKSFEEE” came in with a protease stability score of 1.87.
In the case of “SKEDEDFNERTREWLEILETGDWRKLARLLDPNVLNIVGDKEHHGREEVIKSFRTYLEKVPNMRFTTRRIRLQGDKVDLDGDLYFNGKEIKVRIFLVIYDGRVHSMEVREE”, the protease stability score worked out at 1.09.
“SKEDRDAKWAFEHLMHLLHTGDEEKINENLDPNARNEFDGRELHGREIITEILRNLGIKHLHIHSVEFISQGDKLFSNVDGNNIFDGREVHTHLHFIIEKFNGKWNIKSIHIKIT” displayed a protease stability score of 1.19.
The value for “SKEEDMMRKIVEDFSRAQWTGDEKKVDELLDPNTRSDINGVHIVGMEEYLRVMKHRGVEFKHSEIKDVNLQGDKATWDGIDHVNFNGKDIELQVHIYLRKINGRWSIHTLKVQ” was 0.386; that for “SKEEEDARFMMHLWEHVLRTGDEDVLHKLADPDVKIIIGDKEHVGREELIDIFRERLKEWRIHDFHIRRVHVINGKVHVDGETDGTINGRRIIFRIEIHLVIVDGRIKEVEEDME” was 1.87.
In the case of “SKEEEDTERITRLILEYLLTGDEDVFNHLADPNVRLVIDGRLVHGRERASRIMVESYEKFGADHREVRMHSVRDVDGRIHSDIKVHVHIGDKRQNLSHEVYSTKYDGRWIIKSVILT”, the protease stability score is 0.245.
“SKEEEHAYRVMEIILKQHLTGDEEEISRLLDPHVKMDVDGVILHGRENASRWLFEWIRFFKGLRLHIHIEDIQVQGEKSHHHTRLHITINGRTQNYRFKVHAVVVNGQIKHFELDWD”: the protease stability score amounted to 1.39.
With “SKEEHDAKYIAMLVVENLLTGDWERLFRYLDPHARMEFKVGDKHIETHGWKEIKETLDELITEWRTDDMKVRDIKVYGDKVDVEGEMRGDINGRIRTIEVRIEVIVVNGRLKDISFEVK” the figure was 1.95; with “SKEEHETHRMIEHILKIVKTGDEENIHKNLDPHVRVNVNGRNLHGREEFVRVMYQWWHEAGVDHVHLTDFEIQGDKAHIHIDEHFNGKRHHIEIIAQKVNGKWLMREVIID”, 1.39; with “SKEEKDYWEFAEIWISDLLTGDEDLRKHLHDPDVRYHYHQGDKTFETHGMEEVLKLDKDLWRRLGVKHLEIHRVEVQGDKIHLDARLQVGDKSTEVHILLIVVNGKVKHIHIFVH”, 1.2.

Values taken from the NTF2 design screens of Basanta et al. (2020).
